# Laboratory results from the RNAGym collection of RNA variant scans (doi:10.1073/pnas.2313332121).
# B1: TPR t1 (parent)
# chain: GACCAAUCUGCCCUCAGAGCUCGAGAACAUCUUCGGAUGCAGAGGAGGCAGGCUUCGGUGGCGCGAUAGCGCCAACGUCCUCAACCUCCAAUGCAUCCCACCACAUGAUGAUGCCUGAAGAGCCUUGGUUUUUUG
# Variants of: B1
# Test: polymerase ribozyme fitness, log enrichment relative to wild type (log ratio); higher = more active; in vitro selection for triplet polymerase activity
# How it was run: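 Mutant libraries of each subunit of a heterodimeric triplet polymerase ribozyme were built by PCR and transcribed. Each library went through one round of in vitro selection in triplicate: annealing with biotinylated primer, partner subunit and triplets, frozen incubation at −7 °C, gel excision of extended constructs, streptavidin-bead capture and RT-PCR. Input and output libraries were Illumina-sequenced; only genotypes with ≥10 input reads and ≥1 read per output were kept. Fitness is log2(genotype enrichment/wild-type enrichment), using inverse-variance-weighted replicate averages.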
row,Variant,polymerase ribozyme fitness (log ratio)
1,C8A U32A A90G,-4.24
2,C8G A41C G63U C64U G113A A118G,-7.5
3,C8G G36U,0.298
4,U9A A24G G42A G52C C72G,-3.17
5,C8U U38G G51A,-3.4
6,C8U G120U,1.14
7,C8U C22U G39U G113A G120C C123A,-5.45
8,C8G G44C C49A,0.0557
9,C8U G48C,0.186
10,C8G G117U,-1.44
11,C8G G117C,-0.943
12,C8G C20G C40G U96C U112A,-6.13
13,C8G G39U C80A,-2.47
14,C8U U14A G61A,-0.345
15,C8G G52A G63C C94G G113C U131G,-4.64
16,C8U U9G A37G G117C,-0.0473
17,C8G A16G C56G C72A A100C,-1.46
18,C8G C11G A41C C49A,-0.887
19,C8G A27U A29U G69U C101A C114U,-5.18
20,C8A U9G C94G,-0.653
21,C8G A16C U87A,-0.437
22,C8U C73A,1.41
23,C8G C22U A43G C88U C97A C99U C101U C102G G110C,-6.9
24,C8G G60U C102U,-0.641

row,Variant,polymerase ribozyme fitness (log ratio)
1,C8G G63A C73U U78C C123G,0.795
2,U9A A26U C40G G58C U125G,-4.12
3,C8G U92A,-1.78
4,C8G A46G A83G U126G G127A,-1.72
5,C8G C13U C40G C124G,0.821
6,C8U G48A A50G,-1.52
7,C8G U38A A100U,-2.56
8,C8A G42A C62A C114U,-2.59
9,C8U C13A A18C U54G C70U,-3.71
10,C8G C15U A46C C72U G93A G110A,-2.41
11,C8G C15U C89G G93A C101U G113C C114U G127C,-3.86
12,C8U G44U C88G,-1.96
13,C8U G44A C56A C72A U81C A111C,-3.76
14,C8G C12U C97G,-3.16
15,C8U C13A C85A U106C C123A,-0.442
16,C8U C49U G71C G117U G120A C124A,-1.83
17,C8G C12G A27U C64U,-1.4
18,C8U C64A U78C,-6.51
19,C8U C40G G63U A100G,-5.92
20,U9A A46G C85U U125A,-1.94
21,C8A G19A U87C A91C G113C G127C,-2.18
22,C8G C31A A50C G113U,-5.53
23,C8G A18C A37C G120C,0.00671
24,C8G C20A C82U A100C U112C,-3.16

row,Variant,polymerase ribozyme fitness (log ratio)
1,C8U G52U C86A,-1.28
2,C8A G61A,-0.475
3,C8G G52U C64U C73U U96G,-1.4
4,C8G C12G G60U G93A,-0.276
5,C8U A29U C70U,-2.36
6,C8U C73A C88G,-1.06
7,C8U A16U A37U G52C C56G C79A G110U U126A,-4.2
8,C8U G52A A74U U112C,1.59
9,U9A A18U A41G U92A,-2.99
10,U9A A37U A41G,0.164
11,C8G G65C C114U C123A,-7.69
12,C8A G48U U59G C73G A105C U112C G120A,-2.35
13,C8G C49A U96G,0.183
14,C8U U9C A119U,0.976
15,C8A G48A C101G C115U,-4.25
16,C8U A50U C94A,-1.52
17,C8G C11A G51A G71U U106G G113U U125G,-6.93
18,C8G C114A,0.0806
19,C8G U33C C64A U106A G120C,-6.76
20,C8U G57U G110U,-1.01
21,C8A G48U U59G A105C U112C G120A,-1.08
22,C8U C13U A37C C70U A119G,-0.292
23,C8G A43C G45A A50G G113U G120C,-2.24
24,C8A G36U G42A C62U,-2.62

row,Variant,polymerase ribozyme fitness (log ratio)
1,C8G C73G A91G,-1.87
2,C8G G47U C123U,0.786
3,C8G C12G C56U U106G U112G A118C U133G,-1.11
4,C8U G48C C56A,-0.762
5,C8A G61U A83C A100C,-0.341
6,C8G G71A C89A C97U G120C,-1.24
7,C8U U9A A18U C76G,-1.89
8,C8G A27G C64U C72U G93U C104A A111U U125C,-3.56
9,C8A C82G,-0.777
10,C8A U59G C114U,-0.559
11,C8G G63U,-0.674
12,C8U C56U C89A A118U,-1.04
13,C8G C20U A84U G122U,-0.907
14,C8G G35C,-4.29
15,C8G G48U,-0.882
16,C8A U21C C62U A83G G117A,-1.21
17,C8U G17A,-2.57
18,C8G G17U,-0.274
19,C8G U9C C56G,0.364
20,C8G A43U,-0.695
21,C8G A50C C79U A90U,-1.96
22,C8G C89A C114U,-0.406
23,C8G A91G C115U,-0.682
24,C8U U21C U87G G122A,-0.0757

row,Variant,polymerase ribozyme fitness (log ratio)
1,C8G C88A A111C,0.461
2,C8A G44A G57A G77A G110U C123U,-4.41
3,C8G C11U U116C G120U,0.747
4,C8U C114G U126C,-1.85
5,U9A A24C U59C A91U A111C,-6.66
6,C8G G19U G48A A50U U54G U96A C114A,0.218
7,C8A U112C U125A,1.71
8,C8U C62A C98U,-1.15
9,C8G G10C U55G A91C,-1.21
10,C8U G42U A50U,-3.49
11,C8U A27G C82A,-1.59
12,C8U C97U U116C,-0.891
13,C8A C72A U81G G120U,-0.73
14,C8G A46U C104A U106C U116C,-3.35
15,C8G C104G U116C A121U G122U U129C,-7.72
16,C8A G93C,0.003
17,C8U U9A C11A C13A G44U C73A A100U C102U,-4.18
18,C8U C22A A26G C28U C34A G63U C104A U112C G135A,-2.92
19,C8U G58A G110A,-1.27
20,C8G G39A G63U A84U,-1.03
21,C8G C13G C98U,-0.112
22,C8G G17C C53U,-2.9
23,C8U G36A A66C A84C G117A,-3.32
24,C8U A74G C123G,1.71

row,Variant,polymerase ribozyme fitness (log ratio)
1,C8A C123U,1.44
2,C8U C12G U14G G60A U78G G113A,-3.01
3,C8U C12G,0.586
4,C8G C15A G39A G52C U59A C89A G117A,-2.57
5,C8G G48U G60U C85U U92A,-3.06
6,U9A A16C C49U A66G C101G C123A,-4.86
7,C8G U9G C12G C49G A91U,-2.4
8,C8G A26U A29G,-3.46
9,C8U U21C G122A,-0.0897
10,C8G C82A C97A,-4.13
11,C8G G36A G44A,-1.23
12,C8U G60C G61C C72A C101U,-1.33
13,C8G U14C G45A A84G,-0.446
14,C8U U33A,-3.59
15,C8G C22G G47A C70U G77U,-4.84
16,C8G G61C,-1.09
17,C8G G61A,0.403
18,C8G C11U C82A U112A,0.802
19,C8G U21A U38G C76U C88A U112G A121C,-4.14
20,U9A A27U C28A U78C U96A U106A G117A,-4.8
21,C8G,0.574
22,C8U,0.471
23,C8U A24G G44U U106C,-1.81
24,C8U A18U A50U G69C C82A C124G,-3

row,Variant,polymerase ribozyme fitness (log ratio)
1,C8G U9G,0.256
2,C8G C31A A41U C73G U112A,-6.12
3,C8U G71A,-0.229
4,U9A A16U A24C U33G G36A C115U,-7.16
5,C8U C72U U87C,0.806
6,C8G U14G C53U G71A,-0.0624
7,C8A U14C G93U,-0.798
8,C8A G35A C89U G117C,-6.27
9,C8U G19C C56A C115A,-2.03
10,C8U G61A,0.644
11,C8G C115A,0.863
12,C8U C12U C70G C94A,-3.02
13,C8A U14G U55A C62U U78A A100C,-1.37
14,C8U C22G U96A,-2.59
15,C8G G93U,-0.15
16,U9A A29U G36C G44U C72A A84G,-3.62
17,C8G U55A,0.0363
18,C8G G42A,-0.64
19,C8A G35U,-4.85
20,C8U C82U U116G G117A,0.198
21,C8G G39U C70U U78A,-0.697
22,C8U G52U C56A G77U A121U,1.55
23,C8G G48U G58C A75U U109C G113U,-6.98
